The values below come from patent US20050260733A1, “Proteases and uses thereof” (WYETH, priority 2004, published 2005).

Holding throughout (type): biochemical
In one series the target is bovine aggrecan (Bos taurus, UniProt P13608). Briefly: Competitive inhibition ELISA for aggrecanase activity (MAb AGG-C1). As to conditions: bovine aggrecan digested 16 h at 37° C.; for amount of enzyme required to generate 45% inhibition in the competitive inhibition ELISA: then MAb AGG-C1 added. The method, then: Streptavidin-coated microtiter plates (Pierce, Rockford, Ill.) were coated with N-terminally biotinylated peptide aggc1 (b-aggc1) by incubating each well with 100 μl of b-aggc1 (100 ng/ml) for 1 h at room temperature. After washing 4 times with phosphate-buffered saline containing 0.01% Tween-20 (PBS-Tween), wells were blocked for 1 h at room temperature with 100 μl of PBS-Tween containing 2% BSA, followed by 4 washes with PBS-Tween.
In order to validate the neoepitope nature of MAb AGG-C1, competition mixtures (100 μl) comprised of MAb AGG-C1 (0.04 μg/ml) and 1.0-1000 nmol/ml of the synthetic peptides GGLPLPRNITEGE (SEQ ID NO:22), GGLPLPRNITEGE ARGSVILTVK-CONH2 (SEQ ID NO:23), undigested aggrecan, or ADAMTS-4 digested aggrecan were preincubated for 1 h at room temperature. Mixtures were then transferred to b-aggc1 coated wells. After a further incubation for 1 h at room temperature, the plates were washed 4 times with PBS-Tween then incubated for 1 h at room temperature with 100 μl of peroxidase-conjugated secondary goat anti-mouse IgG (1:10,000). Following 4 final washes with PBS-Tween, the wells were incubated with TMB 1 component microwell peroxidase substrate (BioFX Laboratories, Owings Mills, Md.). Color development was terminated by the addition of 0.18 M H2SO4, and the absorbance was monitored spectrophotometrically at 450 nm.
For the generation of a standard curve, bovine aggrecan (25 μg in 50 μl) was digested with ADAMTS-4 (0.001 ng-5 ng) for 16 h at 37° C. MAb AGG-C1 was then added to each digest (final antibody concentration of 0.04 μg/ml) and these mixtures were preincubated for 1 h at room temperature, followed by transfer to b-aggc1 coated plates and completion of the ELISA.
The standard curve was generated by incubating bovine aggrecan with increasing amounts of recombinant ADAMTS-4 for 16 h at 37° C. followed by addition of MAb AGG-C1 to each digest. Similar assays were performed to estimate the relative aggrecanase activity of ADAMTS-8.

A further series addresses T1, α-2 macroglobulin (Homo sapiens, UniProt P01023).
T1 sequence (P01023 24-1474): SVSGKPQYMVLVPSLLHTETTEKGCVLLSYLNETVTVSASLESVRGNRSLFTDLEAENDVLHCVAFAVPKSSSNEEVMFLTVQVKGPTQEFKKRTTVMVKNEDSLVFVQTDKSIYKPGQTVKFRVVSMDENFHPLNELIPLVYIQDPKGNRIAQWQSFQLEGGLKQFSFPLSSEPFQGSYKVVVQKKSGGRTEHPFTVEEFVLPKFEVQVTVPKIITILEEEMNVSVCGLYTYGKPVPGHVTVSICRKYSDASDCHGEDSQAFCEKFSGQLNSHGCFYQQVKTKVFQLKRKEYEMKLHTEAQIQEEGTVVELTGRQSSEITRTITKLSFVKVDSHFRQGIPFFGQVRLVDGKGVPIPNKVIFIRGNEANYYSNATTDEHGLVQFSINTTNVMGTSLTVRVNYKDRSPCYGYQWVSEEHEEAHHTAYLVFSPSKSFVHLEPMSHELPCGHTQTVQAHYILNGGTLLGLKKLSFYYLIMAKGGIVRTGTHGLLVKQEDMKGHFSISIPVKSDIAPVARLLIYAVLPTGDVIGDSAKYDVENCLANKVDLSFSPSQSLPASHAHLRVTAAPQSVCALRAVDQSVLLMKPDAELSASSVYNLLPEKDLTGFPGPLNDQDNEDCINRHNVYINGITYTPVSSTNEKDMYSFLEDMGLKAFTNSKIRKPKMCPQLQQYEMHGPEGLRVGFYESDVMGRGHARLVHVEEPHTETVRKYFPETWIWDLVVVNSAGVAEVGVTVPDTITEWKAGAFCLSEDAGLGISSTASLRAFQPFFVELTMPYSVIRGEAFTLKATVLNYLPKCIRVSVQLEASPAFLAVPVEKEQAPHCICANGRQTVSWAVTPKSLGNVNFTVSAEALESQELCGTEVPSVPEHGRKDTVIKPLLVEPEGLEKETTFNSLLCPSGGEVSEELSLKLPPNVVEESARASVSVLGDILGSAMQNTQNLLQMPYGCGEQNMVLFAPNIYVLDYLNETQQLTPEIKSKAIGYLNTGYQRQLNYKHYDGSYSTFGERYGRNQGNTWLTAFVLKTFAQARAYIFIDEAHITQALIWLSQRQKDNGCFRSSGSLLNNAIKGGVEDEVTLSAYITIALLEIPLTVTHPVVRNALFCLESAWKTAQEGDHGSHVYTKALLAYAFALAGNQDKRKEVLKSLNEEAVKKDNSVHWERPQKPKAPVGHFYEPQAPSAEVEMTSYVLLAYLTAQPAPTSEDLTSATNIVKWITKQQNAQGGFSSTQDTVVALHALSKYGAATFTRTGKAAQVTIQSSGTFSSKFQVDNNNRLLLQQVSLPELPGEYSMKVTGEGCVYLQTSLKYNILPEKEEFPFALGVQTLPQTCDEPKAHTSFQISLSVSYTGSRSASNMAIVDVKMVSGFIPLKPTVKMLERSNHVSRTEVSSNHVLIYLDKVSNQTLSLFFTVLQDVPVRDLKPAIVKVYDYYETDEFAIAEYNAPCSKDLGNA
Description: α2-macroglobulin assay of proteolytic activity. As to conditions: purified recombinant protein.

The target in series [1] is T2, Bovine articular cartilage aggrecan (Glu373-Ala374 bond) (Bos taurus, UniProt P13608).
T2 construct: Bovine articular cartilage aggrecan was incubated with purified ADAMTS-8 or ADAMTS-4; from tissue; host or cells: bovine articular cartilage
Briefly: Western blotting of enzyme-digested aggrecan with neoepitope antibodies (MAb BC-3, MAb AGG-C1, MAb BC-14). As to the method: Detailed procedures for Western blot analyses are set forth below. Bovine articular cartilage aggrecan was incubated with purified ADAMTS-8 or ADAMTS-4 for 16 h at 37° C. in 50 mM Tris, pH 7.3, containing 100 mM NaCl and 5 mM CaCl2. Digestion products were deglycosylated by incubation for 2 h at 37° C. in the presence of chondroitinase ABC (Seikagaku America, Falmouth, Mass.; 1 mU/μg aggrecan), keratanase (Seikagaku; 1 mU/μg aggrecan) and keratanase II (Seikagaku; 0.02 mU/μg aggrecan). Digestion products were separated on 4-12% Bis-Tris NuPAGE SDS PAGE gels (Invitrogen, Carlsbad, Calif.) and then electrophoretically transferred to nitrocellulose. Immunoreactive products were detected by Western blotting with MAb AGG-C1 (0.04 μg/ml) or MAb BC-3 (Caterson, et al., supra). Alkaline-phosphatase-conjugated secondary goat anti-mouse IgG (Promega Corp., Madison, Wis.; 1:7500) was subsequently incubated with the membranes, and NBT/BCIP substrate (Promega) was used to visualize immunoreactive bands. All antibody incubations were performed for 1 h at room temperature, and the immunoblots were incubated with the substrate for 5-15 min at room temperature to achieve optimum color development.
In general terms: Immunoblotting shows a protein as a band on a membrane.

Chain of bovine aggrecan (P13608 17-2364): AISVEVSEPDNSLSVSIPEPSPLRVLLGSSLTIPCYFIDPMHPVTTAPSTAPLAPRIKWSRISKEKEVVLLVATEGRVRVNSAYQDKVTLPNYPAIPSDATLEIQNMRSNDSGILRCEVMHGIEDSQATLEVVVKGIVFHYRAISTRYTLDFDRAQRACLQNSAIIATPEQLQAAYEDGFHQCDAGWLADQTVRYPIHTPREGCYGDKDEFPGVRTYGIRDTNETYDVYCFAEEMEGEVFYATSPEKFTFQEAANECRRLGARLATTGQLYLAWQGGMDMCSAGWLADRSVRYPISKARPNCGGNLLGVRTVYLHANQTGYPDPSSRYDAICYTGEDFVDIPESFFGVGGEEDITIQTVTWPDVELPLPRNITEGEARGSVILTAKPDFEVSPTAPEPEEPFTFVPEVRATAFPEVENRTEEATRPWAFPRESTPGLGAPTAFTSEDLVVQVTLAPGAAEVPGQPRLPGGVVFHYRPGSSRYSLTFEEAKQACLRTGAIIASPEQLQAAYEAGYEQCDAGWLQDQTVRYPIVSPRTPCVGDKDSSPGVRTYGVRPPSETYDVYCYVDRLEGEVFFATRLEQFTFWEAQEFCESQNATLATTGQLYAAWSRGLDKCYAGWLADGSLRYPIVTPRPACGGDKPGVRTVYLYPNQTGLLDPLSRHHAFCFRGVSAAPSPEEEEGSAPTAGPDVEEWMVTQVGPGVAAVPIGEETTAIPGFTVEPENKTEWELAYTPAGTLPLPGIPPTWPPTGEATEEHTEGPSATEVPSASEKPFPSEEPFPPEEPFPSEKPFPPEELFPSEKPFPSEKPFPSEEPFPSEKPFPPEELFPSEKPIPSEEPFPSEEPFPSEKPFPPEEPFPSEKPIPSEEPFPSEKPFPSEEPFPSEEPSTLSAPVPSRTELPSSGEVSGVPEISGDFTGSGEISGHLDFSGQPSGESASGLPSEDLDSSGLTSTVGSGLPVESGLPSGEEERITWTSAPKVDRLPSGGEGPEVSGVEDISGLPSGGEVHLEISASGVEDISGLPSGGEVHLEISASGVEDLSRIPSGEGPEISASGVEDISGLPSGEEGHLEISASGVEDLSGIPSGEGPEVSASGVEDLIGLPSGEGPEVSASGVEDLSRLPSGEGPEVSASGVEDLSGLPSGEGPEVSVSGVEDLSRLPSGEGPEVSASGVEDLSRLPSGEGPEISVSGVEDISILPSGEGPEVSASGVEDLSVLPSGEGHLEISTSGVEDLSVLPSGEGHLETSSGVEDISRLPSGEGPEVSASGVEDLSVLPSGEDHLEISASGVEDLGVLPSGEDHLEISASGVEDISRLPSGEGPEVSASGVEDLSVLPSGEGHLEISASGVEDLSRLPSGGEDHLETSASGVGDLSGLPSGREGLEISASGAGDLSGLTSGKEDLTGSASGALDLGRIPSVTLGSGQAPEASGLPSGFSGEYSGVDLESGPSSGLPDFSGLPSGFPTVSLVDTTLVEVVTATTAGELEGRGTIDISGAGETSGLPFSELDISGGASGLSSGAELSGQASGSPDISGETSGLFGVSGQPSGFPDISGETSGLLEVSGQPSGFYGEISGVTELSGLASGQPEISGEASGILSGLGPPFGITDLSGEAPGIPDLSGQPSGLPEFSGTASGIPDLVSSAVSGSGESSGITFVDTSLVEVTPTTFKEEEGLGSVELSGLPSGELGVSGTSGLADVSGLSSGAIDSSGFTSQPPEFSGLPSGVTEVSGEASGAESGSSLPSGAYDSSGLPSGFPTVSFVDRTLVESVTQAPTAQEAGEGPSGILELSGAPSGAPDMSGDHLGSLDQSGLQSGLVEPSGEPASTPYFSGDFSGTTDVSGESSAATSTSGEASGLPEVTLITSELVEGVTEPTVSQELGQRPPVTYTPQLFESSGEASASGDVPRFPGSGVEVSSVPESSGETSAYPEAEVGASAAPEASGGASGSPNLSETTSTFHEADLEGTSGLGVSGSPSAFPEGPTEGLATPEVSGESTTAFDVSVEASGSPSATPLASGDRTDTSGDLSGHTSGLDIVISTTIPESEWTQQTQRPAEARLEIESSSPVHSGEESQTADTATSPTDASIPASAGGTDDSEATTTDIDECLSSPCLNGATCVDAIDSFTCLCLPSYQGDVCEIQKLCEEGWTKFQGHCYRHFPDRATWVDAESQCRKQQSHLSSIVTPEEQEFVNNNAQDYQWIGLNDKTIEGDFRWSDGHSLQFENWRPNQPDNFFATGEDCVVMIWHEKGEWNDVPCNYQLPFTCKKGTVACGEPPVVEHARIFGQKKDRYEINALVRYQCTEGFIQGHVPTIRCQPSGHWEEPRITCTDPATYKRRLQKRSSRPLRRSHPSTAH
T2 sequence (P13608 17-2364): as above

B1: ADAMTS-8: Recombinant human full-length ADAMTS-8 with carboxy-terminal Strep-tag expressed in CHO cells; elution fraction holds pro- and mature forms (protein)
chain: RFVSEARFVETLLVADASMAAFYGADLQNHILTLMSVAARIYKHPSIKNSINLMVVKVLIVEDEKWGPEVSDNGGLTLRNFCNWQRRFNQPSDRHPEHYDTAILLTRQNFCGQEGLCDTLGVADIGTICDPNKSCSVIEDEGLQAAHTLAHELGHVLSMPHDDSKPCTRLFGPMGKHHVMAPLFVHLNQTLPWSPCSAMYLTELLDGGHGDCLLDAPRAALPLPTGLPGRMALYQLDQQCRQIFGPDFRHCPNTSAQDVCAQLWCHTDGAEPLCHTKNGSLPWADGTPCGPGHLCSEGSCLPEEEVERPKPVADGGWAPWGPWGECSRTCGGGVQFSHRECKDPEPQNGGRYCLGRRAKYQSCHTEECPPDGKSFREQQCEKYNAYNYTDMDGNLLQWVPKYAGVSPRDRCKLFCRARGRSEFKVFEAKVIDGTLCGPETLAICVRGQCVKAGCDHVVDSPRKLDKCGVCGGKGNSCRKVSGSLTPTNYGYNDIVTIPAGATNIDVKQRSHPGVQNDGNYLALKTADGQYLLNGNLAISAIEQDILVKGTILKYSGSIATLERLQSFRPLPEPLTVQLLTVPGEVFPPKVKYTFFVPNDVDFSMQSSKERATTNIIQPLLHAQWVLGDWSECSSTCGAGWQRRTVECRDPSGQASATCNKALKPEDAKPCESQLCPLGSGSAWSHPQFEK
In the case of B1, the “amount of enzyme required to generate 45% inhibition in the competitive inhibition ELISA” value with bovine aggrecan turned out to be 46.6 ± 4.8 pM. The “proteolytic activity by α2-macroglobulin assay” value with α-2 macroglobulin was “verified”. Also, the “cleavage site specificity of aggrecanase activity” value in series [1] (BC-3 and AGG-C1 Western blots) is “specific for the Glu^373-Ala^374 site”. In addition, the “MAb BC-3 immunoreactive bands (cleavage at Glu373-Ala374)” value in series [1] (MAb BC-3 Western blot, 16 h at 37° C.) is “increased in intensity with increasing amounts”. In addition, the “efficiency of cleaving cartilage aggrecan at Glu373-Ala374 compared with ADAMTS-4” value in series [1] (same Western blots, FIGS. 6A-6C) is listed as “less efficient than ADAMTS4”.

B2: C-terminally truncated ADAMTS-8: Recombinant ADAMTS-8 in which the C-terminal thrombospondin and spacer domains were deleted (protein)
chain: MLPAPAAPRWPPLLLLLLLLLLPLARGAPARPAAGGQASELVVPTRLPGSAGELALHLSAFGKGFVLRLAPDDSFLAPEFKIERLGGSGRATGGERGLRGCFFSGTVNGEPESLAAVSLCRGLSGSFLLDGEEFTIQPQGAGGSLAQPHRLQRWGPAGARPLPRGPEWEVETGEGQRQERGDHQEDSEEESQEEEAEGASEPPPPLGATSRTKRFVSEARFVETLLVADASMAAFYGADLQNHILTLMSVAARIYKHPSIKNSINLMVVKVLIVEDEKWGPEVSDNGGLTLRNFCNWQRRFNQPSDRHPEHYDTAILLTRQNFCGQEGLCDTLGVADIGTICDPNKSCSVIEDEGLQAAHTLAHELGHVLSMPHDDSKPCTRLFGPMGKHHVMAPLFVHLNQTLPWSPCSAMYLTELLDGGHGDCLLDAPRAALPLPTGLPGRMALYQLDQQCRQIFGPDFRHCPNTSAQDVCAQLWCHTDGAEPLCHTKNGSLPWADGTPCGPGHLCSEGSCLPEEEVERPKPVADGGWAPWGPWGECSRTCGGGVQFSHRECKDPEPQNGGRYCLGRRAKYQSCHTEECPPDGKSFREQQCEKYNAYNYTDMDGNLLQWVPKYAGVSPRDRCKLFCRARGRSEFKVFEAKVIDGTLCGPETLAICVRGQCVKAGCDHVVDSPRKLDKCGVCGGKGNSCRKVSGSLTPTNYGYNDIVTIPAGATNIDVKQRSHPGVQNDGNYLALKTADGQYLLNGNLAISAIEQDILVKGTILKYSGSIATLERLQSFRPLPEPLTVQLLTVPGEVFPPKVKYTFFVPNDVDFSMQSSKERATTNIIQPLLHAQWVLGDWSECSSTCGAGWQRRTVECRDPSGQASATCNKALKPEDAKPCESQLCPL
Consider B2, for which, in the series with α-2 macroglobulin, the “proteolytic activity by α2-macroglobulin assay” value is given as “active”. The “activity on aggrecan substrate compared with full-length recombinant ADAMTS-8” value in series [1] (AGG-C1 Western blotting) is given as “no more active than full-length recombinant ADAMTS-8”.

B3: ADAMTS-4: Recombinant ADAMTS-4 used for comparison, spontaneously truncated and lacking the spacer domain (protein)
chain: FASLSRFVETLVVADDKMAAFHGAGLKRYLLTVMAAAAKAFKHPSIRNPVSLVVTRLVILGSGEEGPQVGPSAAQTLRSFCAWQRGLNTPEDSDPDHFDTAILFTRQDLCGVSTCDTLGMADVGTVCDPARSCAIVEDDGLQSAFTAAHELGHVFNMLHDNSKPCISLNGPLSTSRHVMAPVMAHVDPEEPWSPCSARFITDFLDNGYGHCLLDKPEAPLHLPVTFPGKDYDADRQCQLTFGPDSRHCPQLPPPCAALWCSGHLNGHAMCQTKHSPWADGTPCGPAQACMGGRCLHMDQLQDFNIPQAGGWGPWGPWGDCSRTCGGGVQFSSRDCTRPVPRNGGKYCEGRRTRFRSCNTEDCPTGSALTFREEQCAAYNHRTDLFKSFPGPMDWVPRYTGVAPQDQCKLTCQAQALGYYYVLEPRVVDGTPCSPDSSSVCVQGRCIHAGCDRIIGSKKKFDKCMVCGGDGSGCSKQSGSFRK
Regarding B3, the “amount of enzyme required to generate aggrecan cleavage product giving 45% inhibition in the competitive inhibition ELISA” value in the series with bovine aggrecan (FIG. 7 standard curve) is “approximately 1 ng”. The “amount of enzyme required to generate 45% inhibition in the competitive inhibition ELISA” value with bovine aggrecan stood at 0.0135 pM.
